The source of these data is paper PMC10244175, “Seeding the aggregation of TDP-43 requires post-fibrillization proteolytic cleavage” (Nature Neuroscience, 2023).

The series concerns the molecule itself. Nature of the series: cryo-EM structure; fibrils of recombinant CP (279–360); helical reconstruction in RELION; two populations (one protofilament 4.1 Å, two protofilaments 3.7 Å); model built for G281-G351.

B1: TDP-43 (279–360) core peptide (domain or fragment, UniProt Q13148 279-360, looked up)
chain: NPGGFGNQGGFGNSRGGGAGLGNNQGSNMGGGMNFGAFSINPAMMAAAQAALQSSWGMMGMLASQQNQSGPSGNNQNQGNMQ
notes: TDP-43 residues 279-360 (82 amino acids), part of the C-terminal domain; printed theoretical mass 8041.7 Da; the atomic model PDB 7Q3U covers G281-G351; The fusion is written as His6-Sumo-TDP-43 (279–360) CP; the tag is removed by Ulp-1; also called CP; CP (279–360); source: E. coli ER2566, purified (Ni-NTA, Ulp-1 cleavage, reverse-phase HPLC C18), lyophilized; fibrils formed at 50 µM in …
Take B1: the binding result was “binds”.
